Measurements published in IntAct's records for PubMed 23395900.

B1: Protein RAD61 (Saccharomyces cerevisiae), Q99359 (parent)
chain: MRAYGKRGPVLRTPFRSNKGLPSSSDVEFSDDDVNSVIPDVSSTISSSIADHPIEGLLDEPRKAQDSSSSFDGANEKPSSQLDSKRNDQNVKIITSSDTSMAFMKDEKLSAFNFLDGSKASKRKRRRTYQKHDANITSSIEPDVQDEDSITMHNEFESIRKIYNDINEFILKLPRADDDILNKMLENEMKMDDSIENNSIRTSKDKKYGKFRTILINKNKENEIMGEEVDQKANTLSLNNADNSNAEKEGLTSTNHYNELKNMGDTIKYQDDIEFLLSNSKSNDNTTVPINEYFKKLLNLSLMIINDEEFFQYAKRYFKKEIIKLSFAQFRSDFPELILLQGYLLHKVSESQSDFPPSFDNFSIELSKDDGKIRTKKNKHIKKLSHLNFEDFLRKTQFKTGLYYSLSLWEMHGNLSLDIIKRISILASNKDLFSRHVKTFIPLLEKLITASEFCHMYIEQPEMFDSLISNLNNQFKDMLDDDSLIKILILLTNMEVHNYTLWKEADMIFQSSMNTILESIHPLTDAKVDNILLHLGLCLNICSRENSRLKLDGKLWYDMKTIFVKMIRDGSDTENRLVQGLFYLNFSFLIKQRKENSNLDPGELNLLLVELEAFKSETSQFNEGISNKIEIALNYLKSIYTSERITI
partner: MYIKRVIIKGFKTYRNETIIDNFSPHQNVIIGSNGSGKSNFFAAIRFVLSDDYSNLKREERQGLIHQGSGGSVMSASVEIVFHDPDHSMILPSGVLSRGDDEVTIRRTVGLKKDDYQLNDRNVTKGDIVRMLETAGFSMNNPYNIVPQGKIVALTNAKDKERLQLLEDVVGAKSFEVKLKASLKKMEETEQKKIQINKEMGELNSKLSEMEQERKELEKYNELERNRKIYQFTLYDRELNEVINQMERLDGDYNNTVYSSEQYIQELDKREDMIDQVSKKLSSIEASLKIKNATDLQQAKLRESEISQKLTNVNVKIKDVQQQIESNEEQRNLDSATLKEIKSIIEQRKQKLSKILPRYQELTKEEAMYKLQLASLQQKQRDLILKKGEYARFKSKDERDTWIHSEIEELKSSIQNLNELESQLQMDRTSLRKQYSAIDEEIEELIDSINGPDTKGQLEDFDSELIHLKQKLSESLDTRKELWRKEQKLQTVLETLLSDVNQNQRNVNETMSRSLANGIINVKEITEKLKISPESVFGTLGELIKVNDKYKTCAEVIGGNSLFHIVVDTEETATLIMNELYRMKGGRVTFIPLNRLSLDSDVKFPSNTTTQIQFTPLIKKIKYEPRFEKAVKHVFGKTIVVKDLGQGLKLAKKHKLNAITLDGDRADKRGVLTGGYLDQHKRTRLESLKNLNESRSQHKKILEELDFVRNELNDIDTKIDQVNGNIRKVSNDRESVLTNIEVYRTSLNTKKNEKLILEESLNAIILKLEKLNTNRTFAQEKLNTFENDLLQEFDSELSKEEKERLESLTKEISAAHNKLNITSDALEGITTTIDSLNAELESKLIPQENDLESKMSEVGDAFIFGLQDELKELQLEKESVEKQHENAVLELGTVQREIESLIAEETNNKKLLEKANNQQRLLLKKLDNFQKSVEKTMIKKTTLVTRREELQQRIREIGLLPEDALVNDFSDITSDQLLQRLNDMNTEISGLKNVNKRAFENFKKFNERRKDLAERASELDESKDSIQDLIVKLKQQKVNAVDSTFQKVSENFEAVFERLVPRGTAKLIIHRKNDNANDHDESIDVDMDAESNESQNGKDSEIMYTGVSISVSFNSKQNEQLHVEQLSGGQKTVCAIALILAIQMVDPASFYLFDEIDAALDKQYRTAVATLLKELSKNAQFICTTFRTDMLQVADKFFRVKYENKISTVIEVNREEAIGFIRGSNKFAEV
B2: Structural maintenance of chromosomes protein 3 (Saccharomyces cerevisiae), P47037 (parent)
chain: B1 partner
partner: B1 chain

Variants of: B1
Settings: with smc3_yeast SMC3, P47037

**Q.** Which “effect of a mutation on the interaction” value does the source give for D271A;D272A here?
**A.** Its value is “decreasing interaction”.

Variants of: B1
Settings: with smc3_yeast SMC3, P47037
Remark: another data set of the same source

**Q.** For N493A;L577R;N622A, which “effect of a mutation on the interaction” value is on record?
**A.** Its value is “decreasing interaction”.

Variants of: B1
Settings: with smc3_yeast SMC3, P47037
Remark: another data set of the same source

**Q.** Which “effect of a mutation on the interaction” value does the source give for N493A;N622A here?
**A.** Its value is “decreasing interaction”.

Variants of: B1
Settings: with smc3_yeast SMC3, P47037
Remark: another data set of the same source

**Q.** K376Q;K377Q;K382Q;K383Q was tested. Which “effect of a mutation on the interaction” value did it give?
**A.** The value was “decreasing interaction”.

Variants of: B1
Settings: with smc3_yeast SMC3, P47037
Remark: another data set of the same source

**Q.** N493A;L532E;N622A was tested. Which “effect of a mutation on the interaction” value did it give?
**A.** The value was “decreasing interaction”.

Variants of: B2
Settings: with rad61_yeast RAD61, Q99359

**Q.** Which “effect of a mutation on the interaction” value does the source give for L163A;L166A;D168A here?
**A.** The value was “decreasing interaction”.

Variants of: B2
Settings: with rad61_yeast RAD61, Q99359
Remark: another data set of the same source

**Q.** L163D;L166D was tested. Which “effect of a mutation on the interaction” value did it give?
**A.** Its value is “decreasing interaction”.

Variants of: B2
Settings: with rad61_yeast RAD61, Q99359
Remark: another data set of the same source

**Q.** With K112N;K113N as the variant, how does the “effect of a mutation on the interaction” value read?
**A.** Its value is “decreasing interaction”.
